Eight molecules from US20110076723A1, “ANTIBODY-PEPTIDE FUSED SYNERGIBODY” (SAMSUNG ELECTRONICS CO., LTD., priority 2008, published 2011) can be followed below.

In assay [1] the target is T1, recombinant VEGFR-2 protein (water soluble extracellular site of human VEGFR-2 with Fc of human IgG1 connected thereto, R&D Systems) (human), P35968.
T1 chain: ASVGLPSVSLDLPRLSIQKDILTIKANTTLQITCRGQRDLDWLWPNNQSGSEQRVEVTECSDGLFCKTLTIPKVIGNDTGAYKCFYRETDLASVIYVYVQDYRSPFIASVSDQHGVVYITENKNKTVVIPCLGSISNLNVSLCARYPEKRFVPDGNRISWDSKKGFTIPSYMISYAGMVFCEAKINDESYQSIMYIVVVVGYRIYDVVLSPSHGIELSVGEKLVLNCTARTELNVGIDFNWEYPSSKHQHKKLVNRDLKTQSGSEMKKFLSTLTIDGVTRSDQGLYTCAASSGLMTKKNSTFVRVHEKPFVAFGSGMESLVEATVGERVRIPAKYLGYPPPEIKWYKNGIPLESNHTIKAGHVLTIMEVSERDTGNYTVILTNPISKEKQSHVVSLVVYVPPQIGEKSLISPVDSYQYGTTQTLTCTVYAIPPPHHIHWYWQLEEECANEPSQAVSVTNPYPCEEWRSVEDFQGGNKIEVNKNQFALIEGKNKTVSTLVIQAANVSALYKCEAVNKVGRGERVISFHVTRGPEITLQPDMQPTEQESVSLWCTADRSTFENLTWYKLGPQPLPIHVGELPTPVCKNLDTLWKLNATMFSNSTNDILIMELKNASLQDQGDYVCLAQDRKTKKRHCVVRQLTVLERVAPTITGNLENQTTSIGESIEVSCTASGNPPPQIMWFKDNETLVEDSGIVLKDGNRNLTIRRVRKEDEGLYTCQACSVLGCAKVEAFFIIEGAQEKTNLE
Kind of assay: competitive ELISA; peptide titrated with 1 nM VEGFR-2 on coated VEGF 165.

Assay [2] addresses T2, recombinant VEGFR-2 protein (water soluble extracellular site of human VEGFR-2 with Fc of human IgG1 … (human, UniProt P35968 20-764)).
T2 construct: extracellular domain; Bought; not shown: Fc of human IgG1
As to the kind of experiment: competitive ELISA; synergibody titrated with 1 nM VEGFR-2 on coated VEGF 165. On the procedure:
Competitive ELISA is performed using the peptides synthesized above in Section 6A in order to assess the molecular interaction of the binders. […] Then the plate is washed five times with PBS containing 0.1% Tween-20, and blocked at room temperature for two hours with PBS containing 5% BSA. For VEGF:VEGFR-2 neutralization ELISA, each of the peptides synthesized in Section 6A above are diluted to one-fourth each time from 100 nM with PBS containing 1 nM VEGFR-2 and 1% BSA, and adjusted to 6.1 pM. 100 μl of peptide/VEGFR-2 solution is added to each well and the plate is left to react at room temperature for two hours. Subsequently, it is washed five times with PBS containing 0.1% Tween-20, mouse anti-VEGFR-2 antibodies (R&D Systems) is diluted to about 1:3,000 with PBS containing 1% BSA, and left to react at room temperature for one hour. Then 100 μl of goat anti-mouse-IgG-HRP (Pierce) diluted to about 1:10,000 with PBS containing 1% BSA is added to each well of the plate, left to react at room temperature for one hour, and washed five times with PBS containing 0.1% Tween-20. Lastly, 100 μl of TMB substrate (SIGMA) is added to each well of the plate to induce color reaction. The reaction is stopped by adding 50 μl of 5N H₂SO₄ solution, and the OD₄₅₀ value is read on a plate reader (Molecular Devices). Through the foregoing, the IC₅₀ value for the VEGF:VEGFR-2 binding capacity is obtained.
The method in Example 2, Section 6B above is used, except that, in the present example, each fused protein synergibodies are diluted from 100 nM to one-fourth each time with PBS containing 1% BSA and 1nM VEGFR-2 and adjusted to 6.1 pM for VEGF:VEGF-2 neutralization ELISA.
For orientation: An ELISA detects its analyte on a solid surface through an enzyme-linked reagent.

Assay [3] concerns the target T3, recombinant hAng-2 (recombinant protein with His tag attached to human Ang-2; R&D Systems) (human, UniProt O15123 19-496).
T3 construct: also called angiopoietin-2; ANGPT2
T3 sequence (looked up): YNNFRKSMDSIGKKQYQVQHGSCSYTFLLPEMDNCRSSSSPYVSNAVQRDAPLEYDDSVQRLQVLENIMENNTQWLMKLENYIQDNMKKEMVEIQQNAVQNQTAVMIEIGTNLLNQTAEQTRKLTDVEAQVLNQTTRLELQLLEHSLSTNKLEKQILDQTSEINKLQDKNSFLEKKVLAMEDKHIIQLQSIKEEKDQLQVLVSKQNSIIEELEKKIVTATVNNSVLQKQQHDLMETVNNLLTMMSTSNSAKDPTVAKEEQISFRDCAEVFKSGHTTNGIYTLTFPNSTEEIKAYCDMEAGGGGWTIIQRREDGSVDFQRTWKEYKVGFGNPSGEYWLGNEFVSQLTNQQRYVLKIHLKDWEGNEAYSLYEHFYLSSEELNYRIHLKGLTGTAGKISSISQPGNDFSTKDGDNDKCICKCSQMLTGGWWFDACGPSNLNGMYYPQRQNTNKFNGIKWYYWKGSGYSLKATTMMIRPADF
As to the kind of experiment: competitive ELISA; synergibody titrated with 1 nM hAng-2 (His) on coated hTie2-Fc. How it is done: A competitive ELISA is performed to assess the molecular interaction of the binders. A 96-well MaxiSorp™ flat-bottom plate (Nunc) is coated with hTie2-Fc (R&D Systems), which is a fused protein including the water-soluble extracellular portion of human Tie-2 and Fc of human IgG₁ dissolved in DMEM culture solution containing 50 μg/ml bovine serum albumin (BSA). The concentration of hTie2-Fc used as a coating material is equivalent to 75% of its maximum binding concentration with 1 nM of recombinant hAng-2 (recombinant protein with His tag attached to human Ang-2; R&D Systems). Then the plate is washed five times with Phosphate Buffer Saline (PBS) containing 0.1% Tween-20 and blocked at room temperature for two hours with PBS containing 5% BSA. Each anti-Ang-2 antibodies are diluted from 100 nM by one-fourth each time with PBS containing 1% BSA and 1 nM hAng-2 and adjusted to 6.1 pM for Ang-2:Tie-2 neutralization ELISA. 100 μl of antibody/hAng-2 solutions are placed in each corresponding well and left to react at room temperature for two hours. Then the wells are washed five times with PBS containing 0.1% Tween-20, and the anti-His antibodies (GE Healthcare) are diluted to about 1:3,000 with PBS containing 1% BSA and left to react at room temperature for one hour. Afterwards, 100 μl of goat anti-mouse-IgG-HRP (Pierce) diluted with PBS containing 1% BSA to about 1:10,000 is added to each well of the plate, left to react at room temperature for one hour, and washed with PBS containing 0.1% Tween-20 five times. Lastly, 100 μl of TMB substrate (SIGMA) is added to each well of the plate to induce color reaction, and the reaction is stopped by adding 50 μl of 5N H₂SO₄ solution. The OD₄₅₀ value is read on a plate reader (Molecular Devices).
The method described in Example 1, Section 3 above is used, except that, in the present example, each fused protein synergibodies are diluted from 100 nM to one-fourth each time with PBS containing 1% BSA and 1 nM hAng-2 and adjusted to 6.1 pM for Ang-2:Tie-2 neutralization ELISA.

For the molecule TGSDDLCYTFPCMHY (modifications not checked) [DTN6VEGFR-2-1], in assay [1], the 50% inhibitory concentration (IC50) was 56.7 nM.

B1: Syn-Ang-VEGFR-6 (other)
heavy (part 1 of 2): QVQLQQSGPELVKPGASVKMSCKASGYTFTDYVISWVKQRTGQGLEWIGEIYPGSGSTYYNEKFKGKASLTADKSSNTAYMQLSSLTSADSAVYFCVRSRGDYYAMDYWGQGTSVTVSS
heavy (part 2 of 2): TGSDDLCYTFPCMHY
light: DIQMTQSPSSLSASLGGKVTITCKASQDINNYITWYQHKPGKGPRLLIHYTSTLQPGIPSRFSGSGSGRDYSFSISNLEPEDIATYYCLQYDNLLTFGGGTKLEIK
notes: Chimeric (human IgG1) SAITAng-2-2 with the peptide at the C-terminus of the heavy chain; also called SAITAng-2-2 x DTN6VEGFR-2-1; not shown: human IgG1 heavy chain constant region with Fc region, from the vector; human light chain constant region, printed as 'constant region of human IgG1'
On to B1, for which the results for the IC50 in assay [2] and in assay [3] were 1.56 nM and 1.91 nM, respectively.

B2: Syn-Ang-VEGFR-9 (other)
heavy (part 1 of 2): B1 heavy (part 1 of 2)
heavy (part 2 of 2): TGSGRMCDGSGPPTNCWFT
light: B1 light
notes: Chimeric (human IgG1) SAITAng-2-2 with the peptide at the C-terminus of the heavy chain; also called SAITAng-2-2 x DTN10VEGFR-2-4; not shown: human IgG1 heavy chain constant region with Fc region, from the vector; human light chain constant region, printed as 'constant region of human IgG1'
With B2, the IC50 in assay [2] was 2.04 nM; in assay [3], 1.95 nM.

B3: Syn-Ang-VEGFR-8 (other)
heavy (part 1 of 2): B1 heavy (part 1 of 2)
heavy (part 2 of 2): EAGAYWCKAWGLSPCLVT
light: B1 light
notes: Chimeric (human IgG1) SAITAng-2-2 with the peptide at the C-terminus of the heavy chain; also called SAITAng-2-2 x DTN9VEGFR-2-3; not shown: human IgG1 heavy chain constant region with Fc region, from the vector; human light chain constant region, printed as 'constant region of human IgG1'
As for B3, the IC50 in assay [2] worked out at 1.48 nM; in assay [3], 2.22 nM.

B4: Syn-Ang-VEGFR-10 (other)
heavy (part 1 of 2): B1 heavy (part 1 of 2)
heavy (part 2 of 2): PGSQGYCHLNMRYQWICDSE
light: B1 light
notes: Chimeric (human IgG1) SAITAng-2-2 with the peptide at the C-terminus of the heavy chain; also called SAITAng-2-2 x DTN11VEGFR-2-5; not shown: human IgG1 heavy chain constant region with Fc region, from the vector; human light chain constant region, printed as 'constant region of human IgG1'
As to B4, the IC50 in assay [2] was found to be 2.16 nM; in assay [3], 2 nM.

B5: Syn-Ang-VEGFR-7 (other)
heavy (part 1 of 2): B1 heavy (part 1 of 2)
heavy (part 2 of 2): EAGKETCGYEWQYCPRP
light: B1 light
notes: Chimeric (human IgG1) SAITAng-2-2 with the peptide at the C-terminus of the heavy chain; also called SAITAng-2-2 x DTN8VEGFR-2-2; not shown: human IgG1 heavy chain constant region with Fc region, from the vector; human light chain constant region, printed as 'constant region of human IgG1'
Consider B5, for which the IC50 in assay [2] turned out to be 1.76 nM; in assay [3], 2.01 nM.

B6: Syn-Ang-VEGFR-16 (other)
heavy (part 1 of 2): QVQLQQSGAELARPGASVKLSCKASGYTFTDYYINWAKQRTGQGLEWIGEIYPGSGDTYYNEKFKGKATLTADKSSSTAYMQLSSLTSEDSAVYFCARYGYKGVYFDYWGQSTTLTVSS
heavy (part 2 of 2): TGSDDLCYTFPCMHY
light: ENVLTQSPAIMAASLGQKVTMTCSASSSVSSSYLHWYQQKSGASPKPLIHRTSNLASGVPARFSGSGSGTSYSLTISSVEAEDDATYYCQQWSGYPFTFGAGTKLELK
notes: Chimeric (human IgG1) SAITAng-2-4 with the peptide at the C-terminus of the heavy chain; also called SAITAng-2-4 x DTN6VEGFR-2-1; not shown: human IgG1 heavy chain constant region with Fc region, from the vector; human light chain constant region, printed as 'constant region of human IgG1'
For the molecule B6, the IC50 is 1.16 nM in assay [2] and 1.22 nM in assay [3].

B7: Syn-Ang-VEGFR-17 (other)
heavy (part 1 of 2): B6 heavy (part 1 of 2)
heavy (part 2 of 2): EAGKETCGYEWQYCPRP
light: B6 light
notes: Chimeric (human IgG1) SAITAng-2-4 with the peptide at the C-terminus of the heavy chain; also called SAITAng-2-4 x DTN8VEGFR-2-2; not shown: human IgG1 heavy chain constant region with Fc region, from the vector; human light chain constant region, printed as 'constant region of human IgG1'
On to B7, for which the IC50 stood at 1.05 nM in assay [2] and 0.998 nM in assay [3].

As a reminder, the IC50 is the concentration at which inhibition is half-maximal.
